Measured values: the supplement of paper PMC9876800

Test system: peptide library, one residue held at a place counted from the S/T acceptor
Assay: relative phosphorylation of the sub-library (ratio to the mean residue at this position); higher = residue favoured
Method in brief: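 Each biotinylated degenerate peptide sub-library fixed one residue at one position around a central Ser/Thr and was incubated with a purified recombinant kinase, a human or orthologue construct, in 384-well plates. The 90 min reactions, under kinase-specific conditions, contained 50 μM peptide and 50 μM ATP spiked with γ-32P-ATP. Phosphorylation was read by phosphorimaging spots on streptavidin membranes and quantifying them by densitometry. Relative sub-library phosphorylation expresses each value as a ratio to the mean residue at that position.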

Chain of ERN1, construct: aa468-end, human (O75460 468-977, looked up): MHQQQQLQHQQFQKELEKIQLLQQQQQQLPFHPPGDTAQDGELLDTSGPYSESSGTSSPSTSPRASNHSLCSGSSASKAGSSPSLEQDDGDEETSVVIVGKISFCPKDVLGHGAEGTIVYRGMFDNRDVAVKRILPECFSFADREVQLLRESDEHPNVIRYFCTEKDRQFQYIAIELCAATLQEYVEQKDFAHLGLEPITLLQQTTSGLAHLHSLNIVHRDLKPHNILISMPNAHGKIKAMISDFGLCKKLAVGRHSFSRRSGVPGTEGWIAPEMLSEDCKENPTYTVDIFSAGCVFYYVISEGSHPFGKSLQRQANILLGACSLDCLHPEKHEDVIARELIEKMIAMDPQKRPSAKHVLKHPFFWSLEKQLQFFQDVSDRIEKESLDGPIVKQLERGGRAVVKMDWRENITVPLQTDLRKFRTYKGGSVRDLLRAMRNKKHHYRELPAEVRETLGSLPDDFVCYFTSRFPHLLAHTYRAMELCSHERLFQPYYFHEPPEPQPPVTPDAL

ERN1, construct: aa468-end, human (from UniProt O75460)
relative phosphorylation
Details	at +1	at +2	at +3	at +4	at -1	at -2	at -3	at -4	at -5
A fixed	0.993	0.597	0.656	0.755	1.28	1.07	1.06	1.11	1.07
D fixed	0.229	0.173	0.375	0.276	0.33	0.672	0.705	0.813	0.747
E fixed	0.263	0.158	0.201	0.26	0.373	0.869	0.801	0.831	0.781
F fixed	0.67	0.858	1.32	1.07	0.966	1.13	0.781	0.708	0.873
G fixed	1.15	0.662	0.791	0.892	0.804	1.26	1.59	1.29	1.25
H fixed	0.835	1.9	1.31	1.03	1.75	1.03	1.03	0.948	1.07
I fixed	0.632	1.08	0.76	0.849	0.562	0.794	0.906	0.949	1.04
K fixed	2.21	1.7	1.45	2.02	1.89	1.14	1.2	1.48	1.49
L fixed	0.643	1.21	0.973	0.766	0.658	0.857	0.854	0.87	0.97
M fixed	1.03	1.14	0.85	0.929	0.937	0.9	0.818	0.937	0.871
N fixed	1.14	0.559	0.793	0.795	0.844	0.933	0.926	1.03	0.956
P fixed	0.258	0.347	0.525	0.851	0.833	1.43	1.08	0.981	0.909
Q fixed	1.2	0.65	0.683	0.912	0.986	0.958	0.833	0.878	0.822
R fixed	3.41	2.73	3.08	2.09	1.86	1.29	1.77	1.45	1.28
V fixed	0.78	1.19	0.726	0.85	1.02	0.982	0.938	0.911	0.971
W fixed	0.775	0.963	1.19	1.45	0.74	0.724	0.813	0.924	0.926
Y fixed	0.778	1.08	1.31	1.2	1.16	0.951	0.906	0.888	0.963
pThr fixed	0.381	0.299	0.315	0.372	0.448	0.996	1.2	0.999	0.991
pTyr fixed	0.3	0.61	0.58	0.345	0.571	1.16	1	0.776	0.916
